Results: US20110052582A1 (Hoffmann-La Roche, published 2011)

T1: Soluble CDCP1 extracellular domain (CDCP1-ECD) (SEQ ID NO:30) fused to Streptavidin Binding Protein (SBP) (human, UniProt Q9H5V8 30-663)
T1 construct: also called SBP-CDCP1-ECD
T1 sequence: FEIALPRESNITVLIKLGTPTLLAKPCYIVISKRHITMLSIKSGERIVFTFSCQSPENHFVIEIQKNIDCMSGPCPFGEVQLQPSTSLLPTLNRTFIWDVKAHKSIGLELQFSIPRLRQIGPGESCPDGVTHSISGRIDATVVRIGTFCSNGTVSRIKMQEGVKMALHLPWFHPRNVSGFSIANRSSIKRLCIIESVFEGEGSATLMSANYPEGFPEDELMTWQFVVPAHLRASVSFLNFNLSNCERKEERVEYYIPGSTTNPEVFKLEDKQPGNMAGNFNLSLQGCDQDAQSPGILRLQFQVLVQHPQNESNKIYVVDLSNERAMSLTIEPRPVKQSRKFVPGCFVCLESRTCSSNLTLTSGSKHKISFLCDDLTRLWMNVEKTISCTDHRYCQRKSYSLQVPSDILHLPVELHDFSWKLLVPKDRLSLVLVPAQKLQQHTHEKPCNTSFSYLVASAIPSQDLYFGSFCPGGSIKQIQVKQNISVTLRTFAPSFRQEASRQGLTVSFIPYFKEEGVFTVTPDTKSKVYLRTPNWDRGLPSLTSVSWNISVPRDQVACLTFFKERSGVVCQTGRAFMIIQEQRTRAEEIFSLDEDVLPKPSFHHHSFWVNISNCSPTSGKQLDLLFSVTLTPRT

B1: hHC4-b / hLC4-L2 (antibody, V domains shown)
VH: EVQLVESGGGLVKPGGSLRLSCAASGFTFNSYSMNWVRQAPGKGLEWVSSISSGGSYIYYADSVKGRFTISRDNAKNSLYLQMNSLRAEDTAVYYCARHPDYDGVWFAYWGQGTLVTVSS
VL: EIVLTQSPATLSLSPGERATMSCSVSSSVFYLHWYQQKPGQAPRLWIYDTSKLASGIPARFSGSGSGTDFTLTISSLEPEDFAVYYCQQWNSNPPTFGGGTKVEIK
B2: hHC4-c / hLC4-a (antibody, V domains shown)
VH: EVQLVESGGGLVQPGGSLRLSCAASGFTFNSYGMSWVRQAPGKGLEWVATISSGGSYTYYPDSVKGRFTISRDNAKNSLYLQMNSLRAEDTAVYYCARHPDYDGVWFAYWGQGTLVTVSS
VL: EIVLTQSPATLSLSPGERATLSCSVSSSVFYVHWYQQKPGQAPRLLIYDTSKLASGIPARFSGSGSGTDFTLTISSLEPEDFAVYYCQQWNSNPPTFGGGTKVEIK
B3: hHC4-b / hLC4-a (antibody, V domains shown)
VH: EVQLVESGGGLVKPGGSLRLSCAASGFTFNSYSMNWVRQAPGKGLEWVSSISSGGSYIYYADSVKGRFTISRDNAKNSLYLQMNSLRAEDTAVYYCARHPDYDGVWFAYWGQGTLVTVSS
VL: EIVLTQSPATLSLSPGERATLSCSVSSSVFYVHWYQQKPGQAPRLLIYDTSKLASGIPARFSGSGSGTDFTLTISSLEPEDFAVYYCQQWNSNPPTFGGGTKVEIK
B4: hHC4-b / hLC4-M (antibody, V domains shown)
VH: EVQLVESGGGLVKPGGSLRLSCAASGFTFNSYSMNWVRQAPGKGLEWVSSISSGGSYIYYADSVKGRFTISRDNAKNSLYLQMNSLRAEDTAVYYCARHPDYDGVWFAYWGQGTLVTVSS
VL: EIVLTQSPATLSLSPGERATMSCGASSSVFYLHWYQQKPGLAPRLWIYDTSKLASGIPDRFSGSGSGTDFTLTISRLEPEDFAVYYCQQWNSNPPTFGGGTKVEIK
B5: hHC4-c / hLC4-b (antibody, V domains shown)
VH: EVQLVESGGGLVQPGGSLRLSCAASGFTFNSYGMSWVRQAPGKGLEWVATISSGGSYTYYPDSVKGRFTISRDNAKNSLYLQMNSLRAEDTAVYYCARHPDYDGVWFAYWGQGTLVTVSS
VL: EIVLTQSPATLSLSPGERATLSCSVSSSVFYVHWYQQKPGQAPRLLIYDTSKLASGIPARFSGSGSGTDYTLTISSLEPEDFAVYYCQQWNSNPPTFGGGTKVEIK
B6: hHC4-b / hLC4-b (antibody, V domains shown)
VH: EVQLVESGGGLVKPGGSLRLSCAASGFTFNSYSMNWVRQAPGKGLEWVSSISSGGSYIYYADSVKGRFTISRDNAKNSLYLQMNSLRAEDTAVYYCARHPDYDGVWFAYWGQGTLVTVSS
VL: EIVLTQSPATLSLSPGERATLSCSVSSSVFYVHWYQQKPGQAPRLLIYDTSKLASGIPARFSGSGSGTDYTLTISSLEPEDFAVYYCQQWNSNPPTFGGGTKVEIK
B7: hHC4-d / hLC4-L (antibody, V domains shown)
VH: EVQLLESGGGLVQPGGSLRLSCAASGFTFNSYGMSWVRQAPGKGLEWVSTISSGGSYTYYPDSVKGRFTISRDNSKNTLYLQMNSLRAEDTAVYYCAKHPDYDGVWFAYWGQGTLVTVSS
VL: EIVLTQSPATLSLSPGERATMSCRASSSVFYLHWYQQKPGQAPRLWIYDTSKLASGIPARFSGSGSGTDFTLTISSLEPEDFAVYYCQQWNSNPPTFGGGTKVEIK
B8: hHC4-c / hLC4-K (antibody, V domains shown)
VH: EVQLVESGGGLVQPGGSLRLSCAASGFTFNSYGMSWVRQAPGKGLEWVATISSGGSYTYYPDSVKGRFTISRDNAKNSLYLQMNSLRAEDTAVYYCARHPDYDGVWFAYWGQGTLVTVSS
VL: EIVLTQSPATLSLSPGERATLSCRASSSVFYLHWYQQKPGQAPRLWIYDTSKLASGIPARFSGSGSGTDFTLTISSLEPEDFAVYYCQQWNSNPPTFGGGTKVEIK
B9: hHC4-c / hLC4-M (antibody, V domains shown)
VH: EVQLVESGGGLVQPGGSLRLSCAASGFTFNSYGMSWVRQAPGKGLEWVATISSGGSYTYYPDSVKGRFTISRDNAKNSLYLQMNSLRAEDTAVYYCARHPDYDGVWFAYWGQGTLVTVSS
VL: EIVLTQSPATLSLSPGERATMSCGASSSVFYLHWYQQKPGLAPRLWIYDTSKLASGIPDRFSGSGSGTDFTLTISRLEPEDFAVYYCQQWNSNPPTFGGGTKVEIK
B10: hHC4-c / hLC4-d (antibody, V domains shown)
VH: EVQLVESGGGLVQPGGSLRLSCAASGFTFNSYGMSWVRQAPGKGLEWVATISSGGSYTYYPDSVKGRFTISRDNAKNSLYLQMNSLRAEDTAVYYCARHPDYDGVWFAYWGQGTLVTVSS
VL: EIVMTQSPATLSVSPGERATLSCSVSSSVFYVHWYQQKPGQAPRLLIYDTSKLASGIPARFSGSGSGTEYTLTISSLQSEDFAVYYCQQWNSNPPTFGGGTKVEIK
B11: hHC4-d / hLC4-L2 (antibody, V domains shown)
VH: EVQLLESGGGLVQPGGSLRLSCAASGFTFNSYGMSWVRQAPGKGLEWVSTISSGGSYTYYPDSVKGRFTISRDNSKNTLYLQMNSLRAEDTAVYYCAKHPDYDGVWFAYWGQGTLVTVSS
VL: EIVLTQSPATLSLSPGERATMSCSVSSSVFYLHWYQQKPGQAPRLWIYDTSKLASGIPARFSGSGSGTDFTLTISSLEPEDFAVYYCQQWNSNPPTFGGGTKVEIK
B12: hHC4-c / hLC4-J (antibody, V domains shown)
VH: EVQLVESGGGLVQPGGSLRLSCAASGFTFNSYGMSWVRQAPGKGLEWVATISSGGSYTYYPDSVKGRFTISRDNAKNSLYLQMNSLRAEDTAVYYCARHPDYDGVWFAYWGQGTLVTVSS
VL: EIVMTQSPATLSLSPGERATMSCRASSSVFYLHWYQQKPGQAPRLWIYDTSKLASGIPARFSGSGSGTDFTLTISSLQPEDFAVYYCQQWNSNPPTFGGGTKVEIK
B13: hHC4-c / hLC4-I (antibody, V domains shown)
VH: EVQLVESGGGLVQPGGSLRLSCAASGFTFNSYGMSWVRQAPGKGLEWVATISSGGSYTYYPDSVKGRFTISRDNAKNSLYLQMNSLRAEDTAVYYCARHPDYDGVWFAYWGQGTLVTVSS
VL: EIVMTQSPATLSLSPGERATLSCRASSSVFYLSWYQQKPGQAPRLWIYDTSKLASGIPARFSGSGSGTDFTLTISSLQPEDFAVYYCQQWNSNPPTFGGGTKVEIK
B14: hHC4-c / hLC4-L (antibody, V domains shown)
VH: EVQLVESGGGLVQPGGSLRLSCAASGFTFNSYGMSWVRQAPGKGLEWVATISSGGSYTYYPDSVKGRFTISRDNAKNSLYLQMNSLRAEDTAVYYCARHPDYDGVWFAYWGQGTLVTVSS
VL: EIVLTQSPATLSLSPGERATMSCRASSSVFYLHWYQQKPGQAPRLWIYDTSKLASGIPARFSGSGSGTDFTLTISSLEPEDFAVYYCQQWNSNPPTFGGGTKVEIK
B15: hHC4-d / hLC4-K (antibody, V domains shown)
VH: EVQLLESGGGLVQPGGSLRLSCAASGFTFNSYGMSWVRQAPGKGLEWVSTISSGGSYTYYPDSVKGRFTISRDNSKNTLYLQMNSLRAEDTAVYYCAKHPDYDGVWFAYWGQGTLVTVSS
VL: EIVLTQSPATLSLSPGERATLSCRASSSVFYLHWYQQKPGQAPRLWIYDTSKLASGIPARFSGSGSGTDFTLTISSLEPEDFAVYYCQQWNSNPPTFGGGTKVEIK
B16: hHC4-c / hLC4-c (antibody, V domains shown)
VH: EVQLVESGGGLVQPGGSLRLSCAASGFTFNSYGMSWVRQAPGKGLEWVATISSGGSYTYYPDSVKGRFTISRDNAKNSLYLQMNSLRAEDTAVYYCARHPDYDGVWFAYWGQGTLVTVSS
VL: EIVMTQSPATLSVSPGERATLSCSVSSSVFYVHWYQQKPGQAPRLLIYDTSKLASGIPARFSGSGSGTEFTLTISSLQSEDFAVYYCQQWNSNPPTFGGGTKVEIK
B17: hHC4-c / hLC4-L2 (antibody, V domains shown)
VH: EVQLVESGGGLVQPGGSLRLSCAASGFTFNSYGMSWVRQAPGKGLEWVATISSGGSYTYYPDSVKGRFTISRDNAKNSLYLQMNSLRAEDTAVYYCARHPDYDGVWFAYWGQGTLVTVSS
VL: EIVLTQSPATLSLSPGERATMSCSVSSSVFYLHWYQQKPGQAPRLWIYDTSKLASGIPARFSGSGSGTDFTLTISSLEPEDFAVYYCQQWNSNPPTFGGGTKVEIK
B18: hHC4-d / hLC4-I (antibody, V domains shown)
VH: EVQLLESGGGLVQPGGSLRLSCAASGFTFNSYGMSWVRQAPGKGLEWVSTISSGGSYTYYPDSVKGRFTISRDNSKNTLYLQMNSLRAEDTAVYYCAKHPDYDGVWFAYWGQGTLVTVSS
VL: EIVMTQSPATLSLSPGERATLSCRASSSVFYLSWYQQKPGQAPRLWIYDTSKLASGIPARFSGSGSGTDFTLTISSLQPEDFAVYYCQQWNSNPPTFGGGTKVEIK
B19: hHC4-d / hLC4-J (antibody, V domains shown)
VH: EVQLLESGGGLVQPGGSLRLSCAASGFTFNSYGMSWVRQAPGKGLEWVSTISSGGSYTYYPDSVKGRFTISRDNSKNTLYLQMNSLRAEDTAVYYCAKHPDYDGVWFAYWGQGTLVTVSS
VL: EIVMTQSPATLSLSPGERATMSCRASSSVFYLHWYQQKPGQAPRLWIYDTSKLASGIPARFSGSGSGTDFTLTISSLQPEDFAVYYCQQWNSNPPTFGGGTKVEIK

Target: T1, Soluble CDCP1 extracellular domain …
Test: ELISA on captured SBP-CDCP1-ECD, ratio relative to chimeric CUB4 (chHC4)
Procedure, shortened: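 Streptavidin plates coated overnight at 2–8° C with SBP-CDCP1-ECD HEK293 supernatant (1:15–1:40). Antibodies, undiluted or 12-step dilution, bound 90 min at room temperature; HRP anti-human IgG 1 h, ABTS read at 405/492 nm, signal expressed relative to chimeric chHC4 reference.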

| Binder | binding result | relative binding ratio |
| --- | --- | --- |
| B1 | no binding | – |
| B2 | – | 0.34 |
| B3 | no binding | – |
| B4 | no binding | – |
| B5 | – | 0.28 |
| B6 | no binding | – |
| B7 | – | 0.56 |
| B8 | – | 0.83 |
| B9 | – | 0.71 |
| B10 | – | 0.36 |
| B11 | – | 0.49 |
| B12 | – | 0.42 |
| B13 | no binding | – |
| B14 | – | 0.45 |
| B15 | – | 0.52 |
| B16 | – | 0.29 |
| B17 | – | 0.53 |
| B18 | no binding | – |
| B19 | – | 0.38 |
